Experiments:
primary MCL cells = assay: Apoptosis in freshly isolated primary MCL cells with or without depsipeptide pre-treatment; assay type: cell-based, human; details: depsipeptide 5 nM 16 h, spontaneous apoptosis 23.4±2.9%
Method: Cell lines were also pre-incubated for 30 min with a TRAIL-R1 blocking Ab and a TRAIL-R2 neutralizing Ab from Alexis and R&D systems, respectively, prior to exposure to TRAIL. Freshly isolated cells from patients with MCL were isolated, purified and incubated with different forms of TRAIL as described above for CLL cells. Samples were either analyzed immediately for apoptosis or stored at −80° C. for subsequent Western blotting. Other methods and reagents were as described (Inoue (2004 Cell Death Differ 11 Suppl 2, S193-206); MacFarlane et al., 2005 ibid).
(§1) Apoptosis was quantified by phosphatidylserine (PS) externalization in the presence of propidium iodide as described (MacFarlane et al., 2002 ibid.). Samples for Western blot analysis were prepared and caspase processing detected as described (Inoue et al., 2004 ibid.; MacFarlane et al., 2005 ibid.).
We also obtained three samples from patients with mantle cell lymphoma (MCL), an incurable and aggressive disease that accounts for ˜6% of all non-Hodgkin's lymphoma. There are no standard treatments for MCL and the prognosis is very poor particularly for the blastoid variant. MCL cells were isolated and exposed to the different forms of TRAIL after pre-treatment for 16 h with depsipeptide (5 nM).

Jurkat cells [1] = assay: Caspase-8 and -3 processing by Western blot in Jurkat cells; assay type: cell-based; details: FIG. 1D
Method: (§2) Cells were also exposed to HGS-ETR1 or HGSETR2 (1 μg ml^−1). C: Ramos or Jurkat cells were pre-incubated for 30 min either alone or with TRAIL-R1 blocking Ab or TRAIL-R2 neutralizing Ab (5 μg ml^−1). […] D: Ramos and Jurkat cells were exposed to wt TRAIL or TRAIL mutants as described above and processing of caspase-3 and -8 determined by Western blot analysis. The asterisk indicates a non-specific band. The lower panel of the blot for detection of the caspase-8 p18 subunit was exposed for twice as long as the upper panel. Apoptosis was assessed by phosphatidylserine externalization and results expressed as the Means±SEM of at least 3 separate determinations.
as §1
(§3) To confirm that the mutants were inducing apoptosis, we examined their effects on the processing of caspase-8, the apical caspase in death receptor-induced apoptosis and caspase-3, an effector caspase.

Ramos cells [2] = assay: Caspase-8 and -3 processing by Western blot in Ramos cells; assay type: cell-based; details: FIG. 1D
Method: as §2, §1, §3

Jurkat cells [3] = assay: Apoptosis by phosphatidylserine (PS) externalization in Jurkat cells; assay type: cell-based; details: for % PS+ cells, Jurkat: 4 h exposure, 500 ng ml^−, Mean ± SEM of at least three determinations; for ability to induce apoptosis in Jurkat cells (in words): PS externalization, compared with wt TRAIL
Method: as §2, with “determinations. […]” for “determinations.”
as §1
(§4) Ramos and Jurkat T cells (clone E6-1) were cultured as described (MacFarlane et al, 2005 ibid.). The breast tumour cell line, MCF-7 (clone F43) was cultured as described previously (MacFarlane et al., 2000 J. Cell Biol. 148, 1239-1254). Cells were cultured for either 4 h (Ramos and Jurkat) or 6 h (MCF-7) with His-TRAIL (MacFarlane et al, 1997 J Biol Chem 272, 25417-25420), HGS-ETR1 or HGS-ETR2 (Human Genome Sciences), or a mutant form of His-TRAIL (MacFarlane et al, 2005 ibid.). Samples were analyzed for apoptosis, Western blotting, or TRAIL DISC activation as described (MacFarlane et al, 2005 ibid.; MacFarlane et al. 2002 Oncogene 21, 6809-6818). Mutants of His-TRAIL (residues 95-281) were generated using the Quik-Change site-directed mutagenesis kit (Stratagene, Calif.), confirmed by DNA sequencing, expressed in E. coli and purified as described (MacFarlane et al, 1997 ibid.). For siRNA targeting of TRAIL-R1/-R2, MCF-7 cells were seeded into six-well plates immediately prior to effectene-mediated RNAi transfection with either a negative control siRNA (30 nM, Ambion, #4611), or preannealed siRNA oligonucleotides for TRAIL-R1 or TRAIL-R2 (30 nM, Ambion), with the sequence and validity described (Ren et al, 2004 Mol. Biol. Cell vol 15 pp 5064-5074). After 40 h of transfection the cells were collected and total TRAIL-R1 or TRAIL-R2 levels assessed. Where indicated, RNAi transfected MCF-7 cells were either left untreated or exposed to wt-TRAIL and apoptosis assessed by the extent of Bax activation, determined using the conformation specific Bax MAb, clone 3 (Dewson et al, 2003 Oncogene vol 22 pp 2643-54).

Ramos cells [4] = assay: Apoptosis by phosphatidylserine (PS) externalization in Ramos cells; assay type: cell-based; details: for % PS+ cells, Ramos: 4 h exposure, 500 ng ml^−, Mean ± SEM of at least three determinations; for ability to induce apoptosis in Ramos cells (in words): PS externalization, compared with wt TRAIL
Method: as §2
(§5) Ramos, an Epstein-Barr virus-negative Burkitt's lymphoma cell line, and Jurkat T cells (clone E6-1) were cultured as described (MacFarlane et al (2005 Cell Death and Differentiation vol 12 pages 773-782)). Blood samples were obtained from CLL patients, with patient consent and local ethical committee approval and CLL cells purified as described (MacFarlane et al (2002 Oncogene 21, 6809-6818). Cells were incubated for 16 h with depsipeptide (10 nM), provided by Dr. E. Sausville (NCI, USA). Cells were then cultured for a further 6 h with either HGSETR1 or HGS-ETR2, agonistic mAbs to TRAIL-R1 or -R2, respectively (Human Genome Sciences, Rockville, Md.), His-TRAIL-LE (a recombinant TRAIL with low endotoxin—Alexis Corporation, Nottingham, UK), His-TRAIL, a similar form of human recombinant TRAIL (MacFarlane et al (1997 J Biol Chem 272, 25417-25420)) but not further purified to reduce endotoxin levels or a mutant form of His-TRAIL as described (MacFarlane et al., 2005 ibid.). Cell lines were also pre-incubated for 30 min with a TRAIL-R1 blocking Ab and a TRAIL-R2 neutralizing Ab from Alexis and R&D systems, respectively, prior to exposure to TRAIL. Freshly isolated cells from patients with MCL were isolated, purified and incubated with different forms of TRAIL as described above for CLL cells. Samples were either analyzed immediately for apoptosis or stored at −80° C. for subsequent Western blotting. Other methods and reagents were as described (Inoue (2004 Cell Death Differ 11 Suppl 2, S193-206); MacFarlane et al., 2005 ibid).
as §1
as §4, with “Where indicated, RNAi transfected MCF-7 cells were either left untreated or exposed to wt-TRAIL and apoptosis assessed by the extent of Bax activation, determined using the conformation specific Bax MAb, clone 3 (Dewson et al, 2003 Oncogene vol 22 pp 2643-54).” left out

[5] = test system: TRAIL DISC in Jurkat cells; assay: DISC analysis with biotinylated TRAIL in Jurkat cells; assay type: cell-based; details: biotinylated ligand 500 ng ml^−1, 30 min
Method: (§6) After exposure of the cells for 30 min, DISC complexes were isolated and analyzed for the indicated proteins by Western blotting. To provide an unstimulated receptor control (u/s), biotinylated wt or mutant TRAIL was added to lysate from untreated cells. C: Freshly isolated cells from patients with CLL were incubated for 16 h either alone or in the presence of depsipeptide (10 nM). […] The different symbols used indicate data from six individual patients and the solid line indicates the Mean.
(§7) Ramos or Jurkat cells (5×10^7 cells per treatment) were exposed to biotin-tagged recombinant His-TRAIL (biotinylated TRAIL) or one of its mutant forms (500 ng ml^−1) for 30 min and then DISC formation assessed as described previously (MacFarlane et al., 2002 ibid.).

primary CLL cells = assay: Apoptosis in freshly isolated CLL cells after depsipeptide; assay type: cell-based, human; details: depsipeptide 10 nM 16 h, then 6 h ligand or antibody, FIG. 2C
Method: as §6, §5, §1

[6] = test system: TRAIL DISC in Ramos cells; assay: DISC analysis with biotinylated TRAIL in Ramos cells; assay type: cell-based; details: biotinylated ligand 500 ng ml^−1, 30 min
Method: as §6, §7

Row | Molecule | apoptosis, depsipeptide alone (primary MCL cells) | processing of caspases-8 and -3 (Jurkat cells [1]) | processing of caspase-8 and caspase-3 (Ramos cells [2]) | inhibition of induced apoptosis by TRAIL-R1 blocking Ab (Jurkat cells [3]; 30 min pre-incubation with Ab (5 μg ml^−1)) | % PS+ cells, Jurkat (Jurkat cells [3]) | ability to induce apoptosis in Jurkat cells (in words) (Jurkat cells [3]) | % PS+ cells, Ramos (Ramos cells [4]) | ability to induce apoptosis in Ramos cells (in words) (Ramos cells [4]) | DISC formation: receptor bound, FADD and caspase-8 recruitment [5] | sensitization of CLL cells to induced apoptosis by depsipeptide (primary CLL cells) | DISC formation: receptor bound, FADD and caspase-8 recruitment [6]
1 | C/C=C1\NC(=O)[C@H]2CSSCC/C=C/[C@H](CC(=O)N[C@H](C(C)C)C(=O)N2)OC(=O)[C@H](C(C)C)NC1=O [depsipeptide, reference compound] | 35.4±5% | – | – | – | – | – | – | – | – | – | –
2 | TRAIL.R2-6: His-TRAIL (95-281) with 189Gln, 191Lys, 193Arg, 264Arg, 266Leu, 267Gln; TRAIL-R2 selective mutant (protein, biotin (site not stated) in the DISC analysis only; not biotinylated in the apoptosis assays) TSEETISTVQEKQQNISPLVRERGPQRVAAHITGTRGRSNTLSSPNSKNEKALGRKINSWESSRSGHSFLSNLHLRNGELVIHEKGFYYIYSQTQFKFREEIKENTKNDKQMVQYIYKYTSYPDPILLMKSARNSCWSKDAEYGLYSIYQGGIFELKENDRIFVSVTNERLLQMDHEASFFGAFLVG | – | most potent | not | not | 58.4 ± 11.6% | potently induced apoptosis | 9.4 ± 1.6% | not in Ramos cells | bound TRAIL-R2 extensively in the DISC | lack of activity and not | failed to recruit FADD or caspase-8 to the DISC
3 | TRAIL.R1-6: His-TRAIL (95-281) with 189Ala, 193Ser, 199Val, 201Arg, 213Trp, 215Asp; proposed TRAIL-R1 selective mutant of Kelley et al. (protein, biotin (site not stated) in the DISC analysis only; not biotinylated in the apoptosis assays) TSEETISTVQEKQQNISPLVRERGPQRVAAHITGTRGRSNTLSSPNSKNEKALGRKINSWESSRSGHSFLSNLHLRNGELVIHEKGFYYIYSQTAFRFSEEIKEVTRNDKQMVQYIYKWTDYPDPILLMKSARNSCWSKDAEYGLYSIYQGGIFELKENDRIFVSVTNEHLIDMDHEASFFGAFLVG | – | – | – | – | 6.4 ± 0.8% | inactive | 13.7 ± 1.3% | largely inactive | bound neither TRAIL-R1 nor -R2 | – | failed to recruit FADD or caspase-8 to the DISC
